# Substitutions are numbered along the chain they refer to. In names and notes the source's numbering stands.
# B1: F0103464B09 T100I library variant (VHH, name in Kabat numbering)
# VHH: EVQLVESGGGLVQPGGSLRLSCATTSRAFIRDVFTGWYRRVPGKERELVARIYNGGNTNYADFAKGRFSISRDNAKKMVTLRMSNLKPEDTGVYYCLFSGTINIGREYRSGDYWGQGTLVTVSS
# B2: F0103464B09 T100Q library variant (VHH, name in Kabat numbering)
# VHH: B1 VHH with I104Q
# B3: F0103464B09 T100K library variant (VHH, name in Kabat numbering)
# VHH: B1 VHH with I104K
# B4: F0103464B09 T100R library variant (VHH, name in Kabat numbering)
# VHH: B1 VHH with I104R
# B5: F0103464B09 T100L library variant (VHH, name in Kabat numbering)
# VHH: B1 VHH with I104L
# B6: F0103464B09 T100Y library variant (VHH, name in Kabat numbering)
# VHH: B1 VHH with I104Y
# B7: F0103464B09 T100M library variant (VHH, name in Kabat numbering)
# VHH: B1 VHH with I104M
# B8: F010300702 (bispecific antibody, V domains shown, not shown: small tags and cut ends)
# VH: EVQLVESGGGLVQPGGSLRLSCAASGSIFNINSMAWYRRAPGKQRELVASSTNGGSTNYADSVKGRFTISRDNAKRVYLQMNSLTPEDTAVYYCRALLQPSIYDISRTYWGQGTLVTVSS
# B9: F010301555 (bispecific antibody, part only; not given: Anti-albumin building block, part only)
# chain, part: DVQLVESGGGLVQPGGSLRLSCAASGPVFNINSMAWYRRAPGKQRELVAYSTPGWDWNYADSVKGRFTISRDNAKRVYLQMNSLTPEDTAVYYCRWLLQPSIYDISRTYWGQGTLVTVSSGGGGSGGGS
# What was measured:
# [1] = target: rhNav1.7α + β1-β2-β3 (rhesus Nav1.7α co-expressed with Navβ1, Navβ2 and Navβ3) (rhesus monkey); experiment: FACS, periplasmic extract, CHO Flp-In cells; SD MFI 13
# [2] = target: muNav1.7α (murine Nav1.7α) (murine) (UniProt Q62205); experiment: FACS, periplasmic extract, HEK Jmp-In cells; SD MFI 24
# [3] = target: rhNav1.7α + β1-β2-β3 (rhesus Nav1.7α co-expressed with Navβ1, Navβ2 and Navβ3) (rhesus monkey); experiment: FACS, periplasmic extract, CHO Flp-In cells; SD MFI 53
# [4] = target: rhNav1.7α + β1-β2-β3 (rhesus Nav1.7α co-expressed with Navβ1, Navβ2 and Navβ3) (rhesus monkey); experiment: FACS, periplasmic extract, CHO Flp-In cells; SD MFI 15
# [5] = target: rhNav1.7α + β1-β2-β3 (rhesus Nav1.7α co-expressed with Navβ1, Navβ2 and Navβ3) (rhesus monkey); experiment: FACS, periplasmic extract, CHO Flp-In cells; SD MFI 49
# [6] = target: muNav1.7α (murine Nav1.7α) (murine) (UniProt Q62205); experiment: FACS, periplasmic extract, HEK Jmp-In cells; SD MFI 175
# [7] = target: rhNav1.7α + β1-β2-β3 (rhesus Nav1.7α co-expressed with Navβ1, Navβ2 and Navβ3) (rhesus monkey); experiment: FACS, periplasmic extract, CHO Flp-In cells; SD MFI 18
# [8] = target: rhNav1.7α + β1-β2-β3 (rhesus Nav1.7α co-expressed with Navβ1, Navβ2 and Navβ3) (rhesus monkey); experiment: FACS, periplasmic extract, CHO Flp-In cells; SD MFI 16
# [9] = target: rhNav1.7α + β1-β2-β3 (rhesus Nav1.7α co-expressed with Navβ1, Navβ2 and Navβ3) (rhesus monkey); experiment: FACS, periplasmic extract, CHO Flp-In cells; SD MFI 34
# [10] = target: huNav1.5-β1-β2-β3 (human) (UniProt Q14524); experiment: FACS, CHO Flp-In, competitor 1 µM IRR00092
# [11] = target: rhNav1.7α + β1-β2-β3 (rhesus monkey); experiment: FACS, CHO Flp-In, competitor 1 µM IRR00092
# [12] = target: huNav1.7α + β1-β2-β3 (human) (UniProt Q15858); experiment: FACS, CHO Flp-In, competitor 1 µM IRR00092
# [13] = target: huNav1.5-β1-β2-β3 (human) (UniProt Q14524); experiment: binding FACS, HEK Flp-In
# [14] = target: huNav157chim14-β1-β2-β3 (human); experiment: binding FACS, HEK Flp-In
# [15] = target: huNav1.5-β1-β2-β3 (human) (UniProt Q14524); experiment: binding FACS, CHO Flp-In, periplasmic extract
# [16] = target: huNav1.7α + β1-β2-β3 (human) (UniProt Q15858); experiment: binding FACS, CHO Flp-In, periplasmic extract
# [17] = target: huNav1.5-β1-β2-β3 (human) (UniProt Q14524); experiment: FACS, CHO Flp-In, competitor 1 µM F010300703
# [18] = target: rhNav1.7α + β1-β2-β3 (rhesus monkey); experiment: FACS, CHO Flp-In, competitor 1 µM F010300703
# [19] = target: rhNav1.7α + β1-β2-β3 (rhesus monkey); experiment: competition FACS IC50 with 50 µM human SA against without
# [20] = target: huNav1.7α + β1-β2-β3 (human) (UniProt Q15858); experiment: as above
# huNav1.7α + β1 (human) = huNav1.7α + β1 (human) (UniProt Q15858); experiment: cell-based or functional assay
# [21] = target: rhNav1.7α + β1-β2-β3 (rhesus monkey); experiment: cell-based or functional assay
# [22] = target: rhNav1.7α + β1-β2-β3 (rhesus monkey); experiment: competition FACS vs EC25 of 275B05(N93R), CHO FlpIn
# [23] = target: huNav1.7α + β1-β2-β3 (human) (UniProt Q15858); experiment: as above
# [24] = target: rhNav1.7α + β1-β2-β3 (rhesus monkey); experiment: competition FACS vs EC25 of 275B05(N93R), CHO FlpIn, + 50 µM human SA
# [25] = target: huNav1.7α + β1-β2-β3 (human) (UniProt Q15858); experiment: as above
binder,measurement,setting,value
B1,Mean MFI,[1],541 MFI
same,Mean MFI,[2],1310 MFI
B2,Mean MFI,[3],650 MFI
B3,Mean MFI,[4],583 MFI
B4,Mean MFI,[5],626 MFI
B5,Mean MFI,[6],1250 MFI
same,Mean MFI,[7],531 MFI
B6,Mean MFI,[8],526 MFI
B7,Mean MFI,[9],585 MFI
B8,MFI,[10],684 MFI
same,MFI,[11],5170 MFI
same,MFI,[12],4120 MFI
same,MFI,[13],946 MFI
same,MFI,[14],15400 MFI
same,MFI,[15],662 MFI
same,MFI,[16],1570 MFI
same,MFI,[17],653 MFI
same,MFI,[18],721 MFI
B9,Human SA ratio,[19],10
same,Human SA ratio,[20],8
same,Human SA ratio of QPatch IC50,huNav1.7α + β1 (human),7
same,"QPatch electrophysiology IC50 [M], HEK cells",huNav1.7α + β1 (human),4.7e-08 M
same,"QPatch electrophysiology IC50 [M], HEK cells, + 10 µM human SA",huNav1.7α + β1 (human),3.4e-07 M
same,Human SA ratio of QPatch IC50,[21],7
same,"QPatch electrophysiology IC50 [M], HEK cells",[21],3.5e-08 M
same,"QPatch electrophysiology IC50 [M], HEK cells, + 10 µM human SA",[21],2.6e-07 M
same,IC50,[22],92 nM
same,IC50,[23],140 nM
same,IC50,[24],880 nM
same,IC50,[25],1200 nM
